The text below walks through data of US20180155451A1 (published 2018).

The chains are these.
B1: GpH7-A5/GpH7-B3 variant A330_01G/GpL16-k0 (antibody, human IgG1, kappa)
heavy 1: not shown
heavy 2: not shown
light: DIVMTQSPLSLPVTPGEPASISCQASESLVHSNRNTYLHWYLQKPGQSPQLLIYKVSNRFSGVPDRFSGSGSGTDFTLKISRVEAEDVGVYYCSQNTHVPPTFGQGTKVEIERTVAAPSVFIFPPSDEQLKSGTASVVCLLNNFYPREAKVQWKVDNALQSGNSQESVTEQDSKDSTYSLSSTLTLSKADYEKHKVYACEVTHQGLSSPVTKSFNRGEC
notes: heterodimerized IgG1, mutation in one H chain only; also called He Ab
B2: GpH7-A5/GpH7-B3 variant L328_03V/GpL16-k0 (antibody, human IgG1, kappa)
heavy 1: not shown
heavy 2: not shown
light: B1 light
notes: as for B1
B3: GpH7-A5/GpH7-B3 variant L328_04F/GpL16-k0 (antibody, human IgG1, kappa)
heavy 1: not shown
heavy 2: not shown
light: B1 light
notes: as for B1
B4: GpH7-A5/GpH7-B3 variant K334_02A/GpL16-k0 (antibody, human IgG1, kappa)
heavy 1: not shown
heavy 2: not shown
light: B1 light
notes: as for B1
B5: GpH7-A5/GpH7-B3 variant K334_05P/GpL16-k0 (antibody, human IgG1, kappa)
heavy 1: not shown
heavy 2: not shown
light: B1 light
notes: as for B1
B6: GpH7-A5/GpH7-B3 variant A327_10E/GpL16-k0 (antibody, human IgG1, kappa)
heavy 1: not shown
heavy 2: not shown
light: B1 light
notes: as for B1
B7: GpH7-A5/GpH7-B3 variant K326_16H/GpL16-k0 (antibody, human IgG1, kappa)
heavy 1: not shown
heavy 2: not shown
light: B1 light
notes: as for B1
B8: GpH7-A5/GpH7-B3 variant K326_20W/GpL16-k0 (antibody, human IgG1, kappa)
heavy 1: not shown
heavy 2: not shown
light: B1 light
notes: as for B1
B9: GpH7-A5/GpH7-B3 variant K334_18N/GpL16-k0 (antibody, human IgG1, kappa)
heavy 1: not shown
heavy 2: not shown
light: B1 light
notes: as for B1
B10: GpH7-A5/GpH7-B3 variant A327_07I/GpL16-k0 (antibody, human IgG1, kappa)
heavy 1: not shown
heavy 2: not shown
light: B1 light
notes: as for B1
B11: GpH7-A5/GpH7-B3 variant K326_15Y/GpL16-k0 (antibody, human IgG1, kappa)
heavy 1: not shown
heavy 2: not shown
light: B1 light
notes: as for B1
B12: GpH7-A5/GpH7-B3 variant K334_10E/GpL16-k0 (antibody, human IgG1, kappa)
heavy 1: not shown
heavy 2: not shown
light: B1 light
notes: as for B1
B13: GpH7-A5/GpH7-B3 variant A327_01G/GpL16-k0 (antibody, human IgG1, kappa)
heavy 1: not shown
heavy 2: not shown
light: B1 light
notes: as for B1
B14: GpH7-A5/GpH7-B3 variant L328_07I/GpL16-k0 (antibody, human IgG1, kappa)
heavy 1: not shown
heavy 2: not shown
light: B1 light
notes: as for B1
B15: GpH7-A5/GpH7-B3 variant K334_12R/GpL16-k0 (antibody, human IgG1, kappa)
heavy 1: not shown
heavy 2: not shown
light: B1 light
notes: as for B1
B16: GpH7-A5/GpH7-B3 variant A327_18N/GpL16-k0 (antibody, human IgG1, kappa)
heavy 1: not shown
heavy 2: not shown
light: B1 light
notes: as for B1
B17: GpH7-A5/GpH7-B3 variant L328_10E/GpL16-k0 (antibody, human IgG1, kappa)
heavy 1: not shown
heavy 2: not shown
light: B1 light
notes: as for B1
B18: GpH7-A5/GpH7-B3 variant S267_11K/GpL16-k0 (antibody, human IgG1, kappa)
heavy 1: not shown
heavy 2: not shown
light: B1 light
notes: as for B1
B19: GpH7-A5/GpH7-B3 variant S267_12R/GpL16-k0 (antibody, human IgG1, kappa)
heavy 1: not shown
heavy 2: not shown
light: B1 light
notes: as for B1

For the first experiment, the target named is T1, FcγRIIa H (human, UniProt P12318 34-217).
T1 construct: extracellular domain; also called FcγRIIa type H; 2aH
T1 sequence (looked up): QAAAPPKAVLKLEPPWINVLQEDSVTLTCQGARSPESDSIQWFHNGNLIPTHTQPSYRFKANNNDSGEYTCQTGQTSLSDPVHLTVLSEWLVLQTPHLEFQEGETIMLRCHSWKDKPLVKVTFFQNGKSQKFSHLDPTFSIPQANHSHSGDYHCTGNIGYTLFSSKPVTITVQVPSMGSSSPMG
The experiment is described as follows: SPR (Biacore), relative binding vs GpH7-A5/GpH7-B3/GpL16-k0. As to the method: (§1) The heterodimerized antibodies He Abs in which one of the H chains was introduced with an alteration were assayed for their binding activities to each activating FcγR and inhibitory FcγR according to the method described in Example 4. […] The activating FcγRs in FIGS. 26, 27, 28, and 29 are FcγRIa, FcγRIIa (R), FcγRIIa (H), and FcγRIIIa, respectively.
(§2) Analysis of interaction between objective antibody and the FcγR was carried out using Biacore T100 (GE Healthcare). HBS-EP+ (GE Healthcare) was used as the running buffer, and the measurement temperature was set to 25° C. Chips produced by immobilizing the antigen peptide by the amine coupling method to a Series S Sencor Chip CM5 (GE Healthcare), or alternatively, chips produced by allowing preliminarily biotinylated antigen peptides to interact with and immobilize onto a Series S Sensor Chip SA (certified) (GE Healthcare) were used. Antibodies of interest were captured onto an antigen peptide-immobilized chip, and allowed to interact to each FcγR diluted with running buffer. To regenerate and repeatedly use the chip, the antibodies captured on the chip were washed off by reacting 10 mM glycine-HCl, pH 1.5.
Background: Surface plasmon resonance follows binding to a sensor surface in real time, without labels.
In the case of B1, the He/Con_2aH is 99 % of control He Ab (=100).
Still for that read-out and setting: to B2 belongs 97.8 % of control He Ab (=100); to B3, 71.7 % of control He Ab (=100).
On the same count and under the same terms, then B4, with 97 % of control He Ab (=100); and B5, with 97.6 % of control He Ab (=100).
The same measure, in the same setting: to B6 belongs 91.3 % of control He Ab (=100).
B7: the He/Con_2aH was 97.9 % of control He Ab (=100).
On to B8, for which the He/Con_2aH is 83.3 % of control He Ab (=100).
Turning to B9, the He/Con_2aH is 99.7 % of control He Ab (=100).
With B10, the He/Con_2aH is 58.4 % of control He Ab (=100).
Same read-out and setting: then B11, with 98.3 % of control He Ab (=100).
Still for that read-out and setting: to B12 belongs 98.2 % of control He Ab (=100); to B13, 97.2 % of control He Ab (=100); to B14, 93.9 % of control He Ab (=100).
Still for that read-out and setting: then B15, with 99.7 % of control He Ab (=100); and B16, with 66.8 % of control He Ab (=100); and B17, with 55.5 % of control He Ab (=100).

The target in the next experiment is T2, FcγRIIb (human, UniProt P31994 43-217).
T2 construct: extracellular domain; also called 2b
T2 sequence (looked up): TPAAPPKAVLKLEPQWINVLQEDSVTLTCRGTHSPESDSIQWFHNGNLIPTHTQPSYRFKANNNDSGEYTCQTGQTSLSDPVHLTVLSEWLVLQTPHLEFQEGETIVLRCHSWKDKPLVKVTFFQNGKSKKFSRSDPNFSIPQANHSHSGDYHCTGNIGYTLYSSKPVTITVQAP
The experiment is described as above. As for the experimental part:
as §1, §2
B18: the He/Con_2b was 12.2 % of control He Ab (=100).
Same read-out and setting: to B19 belongs 11.3 % of control He Ab (=100).
On the same count and under the same terms, to B1 belongs 104 % of control He Ab (=100); to B2, 126 % of control He Ab (=100); to B3, 219 % of control He Ab (=100).
In the case of B4, the He/Con_2b was 108 % of control He Ab (=100).
On the same count and under the same terms, then B5, with 105 % of control He Ab (=100).
The same measure, in the same setting: to B6 belongs 140 % of control He Ab (=100); to B7, 119 % of control He Ab (=100).
Same read-out and setting: to B8 belongs 148 % of control He Ab (=100); to B9, 115 % of control He Ab (=100).
With B10, the He/Con_2b is 127 % of control He Ab (=100).
Same read-out and setting: to B11 belongs 159 % of control He Ab (=100); to B12, 114 % of control He Ab (=100).
Still for that read-out and setting: to B13 belongs 116 % of control He Ab (=100).
As to B14, the He/Con_2b is 160 % of control He Ab (=100).
Same read-out and setting: then B15, with 111 % of control He Ab (=100); and B16, with 113 % of control He Ab (=100); and B17, with 172 % of control He Ab (=100).
